Measured values: patent publication US20260210939A1, “MODIFIED OLFACTORY RECEPTORS” (GIVAUDAN SA, priority 2022, published 2026)
Where two headings read alike, the source gives them in different places.

Columns and labels:
[1] = target: T1, OR52A5 (Homo sapiens, UniProt Q9H2C5); format: cell-based
T1 construct: Improved functional expression of modified OR-genes containing the truncated, optimized C-terminus; expressed in transfected cells; host or cells: HEK293T stably expressing human RTP1S(V227I) and RTP2(L220R)
T1 sequence (Q9H2C5 with tags, fused parts or gaps): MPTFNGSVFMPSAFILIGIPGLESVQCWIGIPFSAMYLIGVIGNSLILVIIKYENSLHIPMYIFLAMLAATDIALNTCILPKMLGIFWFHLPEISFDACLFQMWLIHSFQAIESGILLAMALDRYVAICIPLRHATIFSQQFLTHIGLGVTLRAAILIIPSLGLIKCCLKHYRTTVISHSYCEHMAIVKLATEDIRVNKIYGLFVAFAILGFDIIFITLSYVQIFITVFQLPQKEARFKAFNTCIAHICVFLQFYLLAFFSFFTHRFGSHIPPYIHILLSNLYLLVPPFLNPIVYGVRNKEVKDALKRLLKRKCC
Protocol: Further variants of the improved C-terminal domain sequence […] (SEQ ID NO: 86) and falling within the general sequence RN[KR][EDQ][VMIL][KR]xA[LIV][KRH][KR][LI][LIF][KRG][KR][KR] (SEQ ID NO: 1) with further amino acids at the C-terminal end (CC) were tested on the class I receptor OR52A5 activated by 4-ethyloctanoic acid. […] This activation is further improved by either replacing amino acid position 4-6 with the sequence QIR or by adding the terminal sequence RRR.

[2] = target: T2, OR5A2 (Homo sapiens, UniProt Q8NGI9); experiment: CRE-luciferase assay, HEK293T cells expressing OR5A2 (wild-type / modified C-terminus); format: cell-based; conditions: for fold-induction of luciferase: OR5A2 variant
T2 construct: Improved functional expression of modified OR-genes containing the truncated, optimized C-terminus; expressed in transfected cells; host or cells: HEK293T with stably integrated human RTP1S(V227I) and RTP2(L220R)
T2 sequence (Q8NGI9 with tags, fused parts or gaps): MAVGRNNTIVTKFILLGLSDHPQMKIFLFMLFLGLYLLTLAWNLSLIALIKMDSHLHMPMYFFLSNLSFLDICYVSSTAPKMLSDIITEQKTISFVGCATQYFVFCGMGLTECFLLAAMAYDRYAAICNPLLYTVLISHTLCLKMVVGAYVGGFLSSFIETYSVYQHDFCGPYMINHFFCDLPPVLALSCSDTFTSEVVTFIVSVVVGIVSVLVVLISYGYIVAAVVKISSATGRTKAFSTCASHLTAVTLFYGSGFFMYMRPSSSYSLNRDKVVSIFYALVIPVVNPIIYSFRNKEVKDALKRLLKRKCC

[3] = target: T3, OR5B12 (Homo sapiens, UniProt Q96R08, C141R); experiment: CRE-luciferase assay, HEK293T cells expressing OR5B12 (wild-type / modified C-terminus); format: cell-based; conditions: OR5B12 variant
T3 construct: Improved functional expression of modified OR-genes containing the truncated, optimized C-terminus; expressed in transfected cells; host or cells: HEK293T stably expressing human RTP1S(V227I) and RTP2(L220R)
T3 sequence (Q96R08 with tags, fused parts or gaps C141R): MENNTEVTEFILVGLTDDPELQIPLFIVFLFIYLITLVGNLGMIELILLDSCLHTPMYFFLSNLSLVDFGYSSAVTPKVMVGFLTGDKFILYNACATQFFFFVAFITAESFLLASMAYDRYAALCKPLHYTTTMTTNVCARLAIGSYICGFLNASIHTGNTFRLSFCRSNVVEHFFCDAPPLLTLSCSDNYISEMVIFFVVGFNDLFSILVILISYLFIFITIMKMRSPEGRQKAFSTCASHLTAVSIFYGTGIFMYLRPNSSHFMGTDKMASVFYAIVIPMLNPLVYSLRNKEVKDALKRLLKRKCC

[4] = target: T4, OR2T4 (Homo sapiens, UniProt Q8NH00, D328E/G331D/M330K); conditions: OR2T4 variant
T4 sequence (Q8NH00 with tags, fused parts or gaps D328E/M330K/G331D): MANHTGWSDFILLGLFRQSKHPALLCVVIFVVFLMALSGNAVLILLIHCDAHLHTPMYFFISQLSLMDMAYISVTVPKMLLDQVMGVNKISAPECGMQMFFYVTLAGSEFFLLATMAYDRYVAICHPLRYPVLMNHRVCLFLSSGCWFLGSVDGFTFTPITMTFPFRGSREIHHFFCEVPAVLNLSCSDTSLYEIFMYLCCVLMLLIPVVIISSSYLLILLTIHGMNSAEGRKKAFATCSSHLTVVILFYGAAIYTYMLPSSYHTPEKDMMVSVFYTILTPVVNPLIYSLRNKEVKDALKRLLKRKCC

[5] = target: T5, OR7C1 (Homo sapiens, UniProt O76099, D296E/G302K/M297V/R299D/T295K/V126I); experiment: CRE-luciferase assay, HEK293T cells expressing OR7C1 (wild-type / modified C-terminus); format: cell-based; conditions: OR7C1 variant, 1 μM Ambermax
T5 construct: Improved functional expression of modified OR-genes containing the truncated, optimized C-terminus; expressed in transfected cells; host or cells: HEK293T stably expressing human RTP1S(V227I) and RTP2(L220R)
T5 sequence (O76099 with tags, fused parts or gaps V126I/T295K/D296E/M297V/R299D/G302K): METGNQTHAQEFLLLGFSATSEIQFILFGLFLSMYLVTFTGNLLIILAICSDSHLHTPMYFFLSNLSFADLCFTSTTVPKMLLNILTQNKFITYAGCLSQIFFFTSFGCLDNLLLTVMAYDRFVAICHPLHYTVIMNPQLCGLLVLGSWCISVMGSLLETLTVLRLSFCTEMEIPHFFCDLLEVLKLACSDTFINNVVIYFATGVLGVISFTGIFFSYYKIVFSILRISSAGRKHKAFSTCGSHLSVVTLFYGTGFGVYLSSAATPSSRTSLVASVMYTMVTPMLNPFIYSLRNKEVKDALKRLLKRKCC
From the text: To test for possible variants of the sequence […]CC (SEQ ID NO: 86) leading to similar improved functional expression, different point mutations were introduced into the first 16 amino acids of this sequence (corresponding to […], SEQ ID NO: 10) and the variants were fused after the TM7 with OR7C1. […] The test concentrations were selected to fall into the range of partial activity of the wild-type sequence.

[6] = 4 μM 2-methyl-3-tetrahydrofuranethiol
[7] = 8 μM 2-methyl-3-tetrahydrofuranethiol

| Molecule | % of the activation by the optimized sequence RNKEVKDALKRLLKRKCC ([3]; 31 μM Hedione HC) | % of the activation by the optimized sequence RNKEVKDALKRLLKRKCC ([3]; 62.5 μM Hedione HC) | % of the activation by the optimized sequence RNKEVKDALKRLLKRKCC [4, 6] | % of the activation by the optimized sequence RNKEVKDALKRLLKRKCC [4, 7] | % of the activation by the optimized sequence RNKEVKDALKRLLKRKCC [5] | other results |
| --- | --- | --- | --- | --- | --- | --- |
| CCCCC(CC)CCC(=O)O (stereo not shown) [4-ethyloctanoic acid, reference compound] | – | – | – | – | – | Comments on efficacy [1]: 2.5-fold lower; Fold-improvement threshold ([1]; changed C-term. vs wild-type): >10 |
| CC1COCc2cc3c(cc21)C(C)(C)C(C)C3(C)C (stereo not shown) [Galaxolide, reference compound] | – | – | – | – | – | Comments on efficacy [2]: No induction; Detection threshold; concentration for 2-fold induction ([2]; changed C-term. SEQ ID NO: 86): 0.0016 µM; Fold-improvement potency ([2]; changed C-term. vs wild-type): >300; Fold-improvement threshold ([2]; changed C-term. vs wild-type): >20000; concentration at which activation occurs ([2]; modified OR5A2, SEQ ID NO: 86): < 0.01 µM; Detection threshold; concentration for 2-fold induction ([2]; wild-type): (>>31) μM |
| CCOc1cc(C=O)ccc1O [ethyl vanillin, reference compound] | – | – | – | – | – | response of the modified receptor ([2]; modified OR5A2, SEQ ID NO: 86): no response |
| SEQ ID NO: 117 (RNKEVKKAIKRLFKRKCC; source 1..18: note = C-terminal domain sequence) | 435.4% | 282.5% | 96.2% | 88.2% | 310.7% | fold-induction of luciferase ([2]; muscone 0.01 μM): 0.96; fold-induction of luciferase ([2]; muscone 0.03 μM): 1.39; fold-induction of luciferase ([2]; muscone 0.10 μM): 3.49; fold-induction of luciferase ([2]; muscone 0.32 μM): 9.33; fold-induction of luciferase ([2]; muscone 1.00 μM): 19.44; fold-induction of luciferase ([2]; muscone 3.16 μM): 27.31; fold-induction of luciferase ([2]; muscone 10.00 μM): 30.34 |
| SEQ ID NO: 150 (RNKEVKDALKRLLKRKCRKK; source 1..20: note = C-terminal domain sequence) | 182.3% | 145.7% | 94.8% | 96.5% | 196.0% | – |
| SEQ ID NO: 156 (RNKEVKDALKRLLKRKCCRRR; source 1..21: note = C-terminal domain sequence) | 250.7% | 233.4% | – | – | – | fold induction of luciferase by 4-ethyloctanoic acid ([1]; 1 µM): 9.39; fold induction of luciferase by 4-ethyloctanoic acid ([1]; 10 µM): 14.90; fold induction of luciferase by 4-ethyloctanoic acid ([1]; 31 µM): 22.00 |
| SEQ ID NO: 198 (RNKEVKDALKRLLKRKC; source 1..17: note = C-terminal domain sequence) | 0% | 0% | – | – | 137.7% | % of the activation by the optimized sequence RNKEVKDALKRLLKRKCC ([4]; 10 μM Cyclopentanethiol, 30 μM copper): 37.7%; % of the activation by the optimized sequence RNKEVKDALKRLLKRKCC ([4]; 31 μM Cyclopentanethiol, 30 μM copper): 63.5% |
| SEQ ID NO: 221 (RNKEVKKAIKRLFKRKCCRRR; source 1..21: note = C-terminal domain sequence) | 1032.2% | 676.0% | 103.1% | 130.4% | 498.6% | – |
| SEQ ID NO: 740 (RNKQIRDALKRLLKRKCC; source 1..18: note = C-terminal domain sequence) | – | – | – | – | – | fold induction of luciferase by 4-ethyloctanoic acid ([1]; 1 µM): 10.09; fold induction of luciferase by 4-ethyloctanoic acid ([1]; 10 µM): 12.30; fold induction of luciferase by 4-ethyloctanoic acid ([1]; 31 µM): 19.31 |

Continued, in another order:

| % of the activation by the optimized sequence RNKEVKDALKRLLKRKCC ([3]; 31 μM Hedione HC) | % of the activation by the optimized sequence RNKEVKDALKRLLKRKCC ([3]; 62.5 μM Hedione HC) | % of the activation by the optimized sequence RNKEVKDALKRLLKRKCC [4, 6] | % of the activation by the optimized sequence RNKEVKDALKRLLKRKCC [4, 7] | % of the activation by the optimized sequence RNKEVKDALKRLLKRKCC [5] | Molecule | other results |
| --- | --- | --- | --- | --- | --- | --- |
| 126.2% | 136.1% | 80.6% | 98.4% | 288.9% | SEQ ID NO: 118 (RNKEVKRAIRKLLKRKCC; source 1..18: note = C-terminal domain sequence) | – |
| 342.8% | 242.1% | 139.9% | 150.6% | 346.4% | SEQ ID NO: 121 (RNKEVKRAIKRLLKRKCR; source 1..18: note = C-terminal domain sequence) | – |
| 331.3% | 222.3% | 97.3% | 102.0% | 258.8% | SEQ ID NO: 122 (RNKEVKKAIKRLLKRKCR; source 1..18: note = C-terminal domain sequence) | – |
| 254.8% | 231.7% | 108.0% | 135.7% | 265.3% | SEQ ID NO: 149 (RNKEVKDALKRLLKRKCRRR; source 1..20: note = C-terminal domain sequence) | – |
